B1: H chain humanized version i/L chain humanized version b2 antibody (antibody, V domains shown)
VH: QVQLLESGAVLARPGTSVKISCKASGFNIKDYYMHWVKQRPGQGLEWIGGNDPANGHSMYDPKFQGRVTITADTSTSTVFMELSSLRSEDTAVYYCARDSGYAMDYWGQGTLVTVSS
VL: DIQMTQSPSSLSASVGDRVTITCKASQDIKSFLSWYQQKPEKAPKSLIYYATSLADGVPSRFSGSGSGTDYTLTISSLQPEDFATYYCLQHGESPYTFGGGTKVEIK
notes: Expressed from vector N5KG4P (IgG4-type, human Cgamma4 and Ckappa); also called i-b2; ib2
B2: H chain humanized version a/L chain chimeric antibody (antibody, V domains shown)
VH: QVQLLESGAVLARPGTSVKISCKASGFNIKDYYMHWVKQRPGQGLEWIGGNDPANGHSMYDPKFQGRAKLTAATSASIAYLEFSSLTNEDSAVYYCARDSGYAMDYWGQGTLVTVSS
VL: DIKMTQSPSSMYASLGERVTITCKASQDIKSFLSWYQQKPWKSPKTLIYYATSLADGVPSRFSGSGSGQDYSLTINNLESDDTATYYCLQHGESPYTFGGGTKLEIK
notes: Expressed from vector N5KG4P (IgG4-type, human Cgamma4 and Ckappa); also called a-ch; hHva-chLv/N5KG4P
B3: H chain humanized version c/L chain chimeric antibody (antibody, V domains shown)
VH: QVQLLESGAVLARPGTSVKISCKASGFNIKDYYMHWVKQRPGQGLEWIGGNDPANGHSMYDPKFQGRVTMLVDTSKNQFSLRLSSVTAADTAVYYCARDSGYAMDYWGQGTLVTVSS
VL: DIKMTQSPSSMYASLGERVTITCKASQDIKSFLSWYQQKPWKSPKTLIYYATSLADGVPSRFSGSGSGQDYSLTINNLESDDTATYYCLQHGESPYTFGGGTKLEIK
notes: Expressed from vector N5KG4P (IgG4-type, human Cgamma4 and Ckappa); also called c-ch; hHvc-chLv/N5KG4P
B4: H chain humanized version b/L chain chimeric antibody (antibody, V domains shown)
VH: QVQLLESGAVLARPGTSVKISCKASGFNIKDYYMHWVKQRPGQGLEWIGGNDPANGHSMYDPKFQGRVTITADTSTNTAYMELSSLRSEDTAIYYCARDSGYAMDYWGQGTLVTVSS
VL: DIKMTQSPSSMYASLGERVTITCKASQDIKSFLSWYQQKPWKSPKTLIYYATSLADGVPSRFSGSGSGQDYSLTINNLESDDTATYYCLQHGESPYTFGGGTKLEIK
notes: Expressed from vector N5KG4P (IgG4-type, human Cgamma4 and Ckappa); also called b-ch; hHvb-chLv/N5KG4P
B5: H chain chimeric/L chain humanized version b antibody (antibody, V domains shown)
VH: EVQLQQSGTNLVRPGALVKLSCKGSGFNIKDYYMHWVKQRPEQGLEWIGGNDPANGHSMYDPKFQGKASITADTSSNTAYLQLSSLTSEDTAVYFCARDSGYAMDYWGQGTSVTVSS
VL: DIQMTQSPSSLSASVGDRVTITCKASQDIKSFLSWYQQKPGKAPKLLIYYATSLADGVPSRFSGSGSGTDYTLTISSLQPEDFATYYCLQHGESPYTFGGGTKVEIK
notes: Expressed from vector N5KG4P (IgG4-type, human Cgamma4 and Ckappa); also called ch-b; chHv-hLvb/N5KG4P
B6: H chain humanized version a/L chain humanized version a antibody (antibody, V domains shown)
VH: QVQLLESGAVLARPGTSVKISCKASGFNIKDYYMHWVKQRPGQGLEWIGGNDPANGHSMYDPKFQGRAKLTAATSASIAYLEFSSLTNEDSAVYYCARDSGYAMDYWGQGTLVTVSS
VL: DIQMTQSPSSLSASVGDRVTITCKASQDIKSFLSWYQQKPGKAPKLLIYYATSLADGVPSRFSGSGSGTDFTLTISSLQPEDFATYYCLQHGESPYTFGGGTKVEIK
notes: Expressed from vector N5KG4P (IgG4-type, human Cgamma4 and Ckappa); also called hHva-hLva/N5KG4P
B7: H chain humanized version g/L chain humanized version b antibody (antibody, V domains shown)
VH: QVQLLESGAVLARPGTSVKISCKASGFNIKDYYMHWVKQRPGQGLEWIGGNDPANGHSMYDPKFQGKATLTADESSSTAYMQLSSLRSEDSAVYSCARDSGYAMDYWGQGTLVTVSS
VL: DIQMTQSPSSLSASVGDRVTITCKASQDIKSFLSWYQQKPGKAPKLLIYYATSLADGVPSRFSGSGSGTDYTLTISSLQPEDFATYYCLQHGESPYTFGGGTKVEIK
notes: Expressed from vector N5KG4P (IgG4-type, human Cgamma4 and Ckappa); also called g-b; hHvg-hLvb/N5KG4P
B8: H chain humanized version e/L chain chimeric antibody (antibody, V domains shown)
VH: QVQLLESGAVLARPGTSVKISCKASGFNIKDYYMHWVKQRPGQGLEWIGGNDPANGHSMYDPKFQGRVSITADESTKIAYMELNSLRSEDTAVYFCARDSGYAMDYWGQGTLVTVSS
VL: DIKMTQSPSSMYASLGERVTITCKASQDIKSFLSWYQQKPWKSPKTLIYYATSLADGVPSRFSGSGSGQDYSLTINNLESDDTATYYCLQHGESPYTFGGGTKLEIK
notes: Expressed from vector N5KG4P (IgG4-type, human Cgamma4 and Ckappa); also called e-ch; hHve-chLv/N5KG4P
B9: H chain humanized version d/L chain chimeric antibody (antibody, V domains shown)
VH: QVQLLESGAVLARPGTSVKISCKASGFNIKDYYMHWVKQRPGQGLEWIGGNDPANGHSMYDPKFQGRVTITADESTSTAYMELSSLRSEDSAVYFCARDSGYAMDYWGQGTLVTVSS
VL: DIKMTQSPSSMYASLGERVTITCKASQDIKSFLSWYQQKPWKSPKTLIYYATSLADGVPSRFSGSGSGQDYSLTINNLESDDTATYYCLQHGESPYTFGGGTKLEIK
notes: Expressed from vector N5KG4P (IgG4-type, human Cgamma4 and Ckappa); also called d-ch; hHvd-chLv/N5KG4P
B10: H chain humanized version d3/L chain humanized version b antibody (antibody, V domains shown)
VH: QVQLLESGAVLARPGTSVKISCKASGFNIKDYYMHWVRQAPGQGLEWIGGNDPANGHSMYDPKFQGRVTITADESTSTAYMELSSLRSEDSAVYFCARDSGYAMDYWGQGTLVTVSS
VL: DIQMTQSPSSLSASVGDRVTITCKASQDIKSFLSWYQQKPGKAPKLLIYYATSLADGVPSRFSGSGSGTDYTLTISSLQPEDFATYYCLQHGESPYTFGGGTKVEIK
notes: Expressed from vector N5KG4P (IgG4-type, human Cgamma4 and Ckappa); also called d3-b; hHvd3-hLvb/N5KG4P
B11: H chain humanized version b/L chain humanized version b2 antibody (antibody, V domains shown)
VH: QVQLLESGAVLARPGTSVKISCKASGFNIKDYYMHWVKQRPGQGLEWIGGNDPANGHSMYDPKFQGRVTITADTSTNTAYMELSSLRSEDTAIYYCARDSGYAMDYWGQGTLVTVSS
VL: DIQMTQSPSSLSASVGDRVTITCKASQDIKSFLSWYQQKPEKAPKSLIYYATSLADGVPSRFSGSGSGTDYTLTISSLQPEDFATYYCLQHGESPYTFGGGTKVEIK
notes: Expressed from vector N5KG4P (IgG4-type, human Cgamma4 and Ckappa); also called b-b2; hHvb-hLvb2/N5KG4P
B12: H chain humanized version b3/L chain humanized version b antibody (antibody, V domains shown)
VH: QVQLLESGAVLARPGTSVKISCKASGFNIKDYYMHWVRQAPGQGLEWIGGNDPANGHSMYDPKFQGRVTITADTSTNTAYMELSSLRSEDTAIYYCARDSGYAMDYWGQGTLVTVSS
VL: DIQMTQSPSSLSASVGDRVTITCKASQDIKSFLSWYQQKPGKAPKLLIYYATSLADGVPSRFSGSGSGTDYTLTISSLQPEDFATYYCLQHGESPYTFGGGTKVEIK
notes: Expressed from vector N5KG4P (IgG4-type, human Cgamma4 and Ckappa); also called b3-b; hHvb3-hLvb/N5KG4P
B13: H chain chimeric/L chain humanized version c antibody (antibody, V domains shown)
VH: EVQLQQSGTNLVRPGALVKLSCKGSGFNIKDYYMHWVKQRPEQGLEWIGGNDPANGHSMYDPKFQGKASITADTSSNTAYLQLSSLTSEDTAVYFCARDSGYAMDYWGQGTSVTVSS
VL: DIQMTQSPSSLSASVGDRVTITCKASQDIKSFLSWYQQKPGKAPKLLIYYATSLADGVPSRFSGSGSGTDYTLTISSLQPEDIATYYCLQHGESPYTFGGGTKVEIK
notes: Expressed from vector N5KG4P (IgG4-type, human Cgamma4 and Ckappa); also called ch-c; chHv-hLvc/N5KG4P
B14: H chain humanized version b/L chain humanized version a antibody (antibody, V domains shown)
VH: QVQLLESGAVLARPGTSVKISCKASGFNIKDYYMHWVKQRPGQGLEWIGGNDPANGHSMYDPKFQGRVTITADTSTNTAYMELSSLRSEDTAIYYCARDSGYAMDYWGQGTLVTVSS
VL: DIQMTQSPSSLSASVGDRVTITCKASQDIKSFLSWYQQKPGKAPKLLIYYATSLADGVPSRFSGSGSGTDFTLTISSLQPEDFATYYCLQHGESPYTFGGGTKVEIK
notes: Expressed from vector N5KG4P (IgG4-type, human Cgamma4 and Ckappa); also called b-a; hHvb-hLva/N5KG4P
B15: H chain humanized version i/L chain humanized version b1 antibody (antibody, V domains shown)
VH: QVQLLESGAVLARPGTSVKISCKASGFNIKDYYMHWVKQRPGQGLEWIGGNDPANGHSMYDPKFQGRVTITADTSTSTVFMELSSLRSEDTAVYYCARDSGYAMDYWGQGTLVTVSS
VL: DIQMTQSPSSLSASVGDRVTITCKASQDIKSFLSWFQQKPGKSPKTLIYYATSLADGVPSRFSGSGSGTDYTLTISSLQPEDFATYYCLQHGESPYTFGGGTKVEIK
notes: Expressed from vector N5KG4P (IgG4-type, human Cgamma4 and Ckappa); also called i-b1; hHvi-hLvb1/N5KG4P
B16: H chain chimeric/L chain humanized version a antibody (antibody, V domains shown)
VH: EVQLQQSGTNLVRPGALVKLSCKGSGFNIKDYYMHWVKQRPEQGLEWIGGNDPANGHSMYDPKFQGKASITADTSSNTAYLQLSSLTSEDTAVYFCARDSGYAMDYWGQGTSVTVSS
VL: DIQMTQSPSSLSASVGDRVTITCKASQDIKSFLSWYQQKPGKAPKLLIYYATSLADGVPSRFSGSGSGTDFTLTISSLQPEDFATYYCLQHGESPYTFGGGTKVEIK
notes: Expressed from vector N5KG4P (IgG4-type, human Cgamma4 and Ckappa); also called chHv-hLva/N5KG4P
B17: H chain humanized version b/L chain humanized version c antibody (antibody, V domains shown)
VH: QVQLLESGAVLARPGTSVKISCKASGFNIKDYYMHWVKQRPGQGLEWIGGNDPANGHSMYDPKFQGRVTITADTSTNTAYMELSSLRSEDTAIYYCARDSGYAMDYWGQGTLVTVSS
VL: DIQMTQSPSSLSASVGDRVTITCKASQDIKSFLSWYQQKPGKAPKLLIYYATSLADGVPSRFSGSGSGTDYTLTISSLQPEDIATYYCLQHGESPYTFGGGTKVEIK
notes: Humanized antibodies were expressed from vector N5KG4P (IgG4-type); the construction of the b-c plasmid itself is not described; also called b-c
B18: H chain humanized version i/L chain chimeric antibody (antibody, V domains shown)
VH: QVQLLESGAVLARPGTSVKISCKASGFNIKDYYMHWVKQRPGQGLEWIGGNDPANGHSMYDPKFQGRVTITADTSTSTVFMELSSLRSEDTAVYYCARDSGYAMDYWGQGTLVTVSS
VL: DIKMTQSPSSMYASLGERVTITCKASQDIKSFLSWYQQKPWKSPKTLIYYATSLADGVPSRFSGSGSGQDYSLTINNLESDDTATYYCLQHGESPYTFGGGTKLEIK
notes: Expressed from vector N5KG4P (IgG4-type, human Cgamma4 and Ckappa); also called i-ch; hHvi-chLv/N5KG4P
B19: H chain humanized version i/L chain humanized version b antibody (antibody, V domains shown)
VH: QVQLLESGAVLARPGTSVKISCKASGFNIKDYYMHWVKQRPGQGLEWIGGNDPANGHSMYDPKFQGRVTITADTSTSTVFMELSSLRSEDTAVYYCARDSGYAMDYWGQGTLVTVSS
VL: DIQMTQSPSSLSASVGDRVTITCKASQDIKSFLSWYQQKPGKAPKLLIYYATSLADGVPSRFSGSGSGTDYTLTISSLQPEDFATYYCLQHGESPYTFGGGTKVEIK
notes: Expressed from vector N5KG4P (IgG4-type, human Cgamma4 and Ckappa); also called hHvi-hLvb/N5KG4P

The Kd is the equilibrium constant for the complex coming apart. Lower therefore signals tighter binding. In general, koff refers to the first-order rate constant of dissociation. Usually kon stands for the rate constant with which the complex forms.

T2 sequence (P13726 other isoform, or with tags, fused parts or gaps limits assumed): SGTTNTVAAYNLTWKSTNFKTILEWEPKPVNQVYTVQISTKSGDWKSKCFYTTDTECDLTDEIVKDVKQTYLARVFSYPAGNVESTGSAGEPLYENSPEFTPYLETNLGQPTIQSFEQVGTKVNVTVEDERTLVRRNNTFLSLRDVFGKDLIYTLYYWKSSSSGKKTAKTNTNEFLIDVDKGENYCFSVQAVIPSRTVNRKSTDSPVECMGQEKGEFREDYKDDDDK

The first assay addresses recombinant Protein G (UniProt P19909). In words: BIACORE; 10 µl of 72 nM antibody injected over Protein G immobilized on CM5 chip.
On to B1, for which the RU bound was found to be 1000 RU.

The target in the next assay is T1, human tissue factor (TF) on human bladder carcinoma cells J82 (human, UniProt P13726 33-295).
T1 construct: whole, on cells; J82 is described as a TF-high expression cell line; also called the antigen; J82 (ATCC HTB-1)
T1 sequence (P13726 33-295): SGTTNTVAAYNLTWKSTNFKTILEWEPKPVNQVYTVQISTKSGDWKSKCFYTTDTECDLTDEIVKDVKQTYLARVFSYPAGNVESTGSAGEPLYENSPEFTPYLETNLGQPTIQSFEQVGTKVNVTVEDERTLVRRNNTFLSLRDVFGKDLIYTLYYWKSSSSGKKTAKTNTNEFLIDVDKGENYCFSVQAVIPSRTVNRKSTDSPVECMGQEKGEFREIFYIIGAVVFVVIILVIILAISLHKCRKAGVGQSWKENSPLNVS
In words: cell ELISA on fixed J82 cells. On the technique in general: ELISA stands for enzyme-linked immunosorbent assay.
Take B2: the binding result is on record as “binds”.
Same read-out and setting: with B3 the entry was “binds”.
Still for that read-out and setting: with B4 the entry was “binds”; with B5, “binds”.
On the same count and under the same terms, for B6 the value was “binds”; for B7, “binds”; for B8, “binds”.
In the case of B9, the binding result is recorded as “binds”.
As to B10, the binding result is listed as “binds”.
Turning to B11, the binding result was “binds”.
Still for that read-out and setting: for B12 the value was “binds”; for B13, “binds”; for B14, “binds”.
On the same count and under the same terms, for B15 the value was “binds”; for B16, “binds”; for B17, “binds”.
The same measure, in the same setting: with B18 the entry was “binds”.

Another assay concerns the target T2, soluble human TF (human TF amino acids 1-219 with the FLAG peptide at the C-terminal) (human, UniProt P13726 33-251).
T2 construct: Expressed in CHO cells and purified; The entry is the whole soluble TF construct (TF 1-219 plus FLAG peptide M2); The entry may include the signal peptide; also called shTF; soluble TF
In words: BIACORE; antibody captured on Protein G chip, soluble TF as analyte; mean ± SD, n = 3. In general terms: Surface plasmon resonance follows binding to a sensor surface in real time, without labels.
Molecule B19 showed a Kd of 1.39 nM, a koff of 0.000649 s⁻¹ and a kon of 467000 M⁻¹ s⁻¹.
The molecule B1 registered an equilibrium dissociation constant (Kd) of 1.17 nM, a koff of 0.000635 s⁻¹ and a kon of 544000 M⁻¹ s⁻¹.

These data come from US6677436.
